Measured values published in the supplement of paper PMC10724198.
± gives the standard deviation of the averaged measurements.

System: Saccharomyces cerevisiae
Assay: protein stability index of tFT-peptide fusion (C-terminal peptide) (PSI (0-1 scale)); higher = more stable (slower turnover)
Details: genetic background: wild type; temperature: 30 C
Method: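 Multiplexed protein stability (MPS) profiling in S. cerevisiae. Random 12-aa peptides (tFT-X12 library) are fused to the C-terminus of a sfGFP-mCherry tandem fluorescent timer, after mCherry and a GGGS linker. Cells are FACS-sorted into 8 mCherry/sfGFP bins and deep-sequenced. The protein stability index (PSI) is the read-weighted bin average, scaled from 0 (unstable) to 1 (stable). Only peptides with >10 reads are reported; cells were grown at 30 °C in SC-His with glucose.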
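Note: PSI is a weighted mean of sequencing reads over stability bins, variants kept only with over 10 reads, mCherry proximal and sfGFP distal, peptide attached via GGGS linker.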

Sequence | protein stability index
AVGGDGGAWVGP | 0.7231 ± 0.0022
AVGGGTPGGVSG | 0.667 ± 0.012
AVGTYFSPVVLL | 0.65 ± 0.016
AVNEHVPILFLL | 0.62 ± 0.073
AVRRRGGLSVGV | 0.654 ± 0.036
AVSCGLGAGSSA | 0.645 ± 0.039
AVTWSRPRSARM | 0.736 ± 0.0041
AVVVGGGGWWWA | 0.801 ± 0.12
AVWSLMRCREFV | 0.652 ± 0.028
AVYSACSRVGWV | 0.6937 ± 0.0061
AWGELGAGVFGL | 0.68 ± 0.049
AWLAQIKLGWGL | 0.68 ± 0.016
AYCVPPAFPFPL | 0.627 ± 0.044
AYNFMTSVVPGK | 0.744 ± 0.056
AYRLAFYGCVMR | 0.514 ± 0.02
AYSNVFLDPTPV | 0.69 ± 0.0097
CAASLSHKSAPY | 0.768 ± 0.1
CACYILHGRSNP | 0.684 ± 0.081
CAEFLFSTVLYP | 0.735 ± 0.049
CCCELNTEIVQT | 0.682 ± 0.059
CCCVLMTFTSSP | 0.561 ± 0.044
CCFVLDLSASLL | 0.625 ± 0.076
CCKRWICLLRRK | 0.646 ± 0.012
CCLFCLLWSLLY | 0.64 ± 0.0067
CDRVAQWTYPDA | 0.783 ± 0.084

Sequence | protein stability index
CEEQQPGFKPLL | 0.706 ± 0.04
CEERGLLPTQYS | 0.6686 ± 0.006
CEGERRTLSVKP | 0.666 ± 0.033
CEHRTPLMFKRG | 0.686 ± 0.048
CEKGLFLRSAYV | 0.65 ± 0.034
CEVCRGSDRCDV | 0.609 ± 0.015
CEYPWGTVVRDG | 0.709 ± 0.045
CFCVRTGCSVGV | 0.663 ± 0.016
CFFNAASHSTYE | 0.7032 ± 0.0049
CFHIFRKSNMNN | 0.726 ± 0.11
CFLLSSFSLPRS | 0.705 ± 0.0078
CFLSAVFISSSL | 0.601 ± 0.045
CFRGGLLSESVV | 0.6714 ± 0.0011
CFRPFSARVVVL | 0.565 ± 0.016
CFSPAAPLLLPG | 0.689 ± 0.025
CGACGFGLGVWV | 0.701 ± 0.021
CGFALFLCDGFV | 0.744 ± 0.083
CGGRPPADLRLS | 0.69 ± 0.054
CGHVRSLAMAHN | 0.68 ± 0.019
CGLGVRGRLVLS | 0.625 ± 0.026
CGLRRRAGGGGV | 0.7 ± 0.024
CGLSLRVICLEV | 0.497 ± 0.02
CGRVWAENGSQG | 0.689 ± 0.008
CGSGWDRSVGIG | 0.531 ± 0.027
CGSHNRGLSSQL | 0.676 ± 0.022

Sequence | protein stability index
CGVGGVRCGLLG | 0.667 ± 0.029
CGVGWGMGEGWR | 0.6956 ± 0.00081
CGVRQVGEIAVA | 0.526 ± 0.022
CGWASSWHSGLH | 0.6874 ± 0.00071
CGWCCVVCSCLV | 0.602 ± 0.06
CGWMVSAGRLGG | 0.655 ± 0.022
CHALPPLLPDPL | 0.715 ± 0.028
CIARPSGNRSYL | 0.714 ± 0.069
CINDSEYHSTMF | 0.741 ± 0.043
CIRSSSTEPCLP | 0.685 ± 0.00086
CIYPYSSLLMRI | 0.532 ± 0.028
CKGIGLGGGVVS | 0.599 ± 0.033
CKRDENKKIILR | 0.727 ± 0.014
CLAAPIQDGGLT | 0.684 ± 0.086
CLAIWSNLNECH | 0.715 ± 0.034
CLARPVFFSFIG | 0.559 ± 0.029
CLATAMARSQRE | 0.683 ± 0.024
CLCCTSFPPPFP | 0.673 ± 0.057
CLCPPPPLPVPR | 0.699 ± 0.092
CLLLSLRVPPFS | 0.638 ± 0.012
CLPHYSQVLLNW | 0.715 ± 0.098
CLPPSPASFHPL | 0.65 ± 0.056
CLPSQSAESLTF | 0.664 ± 0.02
CLSPAFGCWWIV | 0.582 ± 0.11
CNGRREAGHVDM | 0.624 ± 0.13

Sequence | protein stability index
CPALPPAPLSPL | 0.725 ± 0.018
CPCRCLGFRWCF | 0.631 ± 0.076
CPFLSISSNCSM | 0.667 ± 0.027
CPGGQVECGVLC | 0.652 ± 0.021
CPHSLDTFVSKF | 0.704 ± 0.066
CPNLWSRFASRC | 0.716 ± 0.0085
CPPLSPPLLLLL | 0.667 ± 0.017
CPRRGSHLARLL | 0.621 ± 0.038
CPSFTSVLPSVP | 0.678 ± 0.036
CPSHPDCFPDRL | 0.6792 ± 0.0039
CPSRCGLRAPYL | 0.706 ± 0.017
CPTLSSHLLFPS | 0.659 ± 0.087
CQPTTTCTGGNV | 0.693 ± 0.035
CRFPFRILHPPF | 0.68957 ± 0.00018
CRFYKYIRNMFR | 0.674 ± 0.074
CRGGRHFSREKF | 0.723 ± 0.036
CRGWWRPGLGVT | 0.64 ± 0.015
CRILRPITLRFR | 0.528 ± 0.013
CRLRHPFPLSTR | 0.644 ± 0.052
CRLSCRSVDAST | 0.662 ± 0.022
CRLTAWDESGSG | 0.673 ± 0.025
CRPAASCLPPER | 0.6684 ± 0.0066
CRRLSICPILFL | 0.607 ± 0.0062
CRRRGPWDRRSR | 0.624 ± 0.014
CRRRNRLLLFRK | 0.697 ± 0.037

Sequence | protein stability index
CRSCFGGGVRFV | 0.743 ± 0.076
CRTTDFQCTIGN | 0.683 ± 0.0087
CRVALSRGVSLV | 0.65 ± 0.0094
CRVVRPSLEPQV | 0.697 ± 0.02
CRWLLWVDGWRV | 0.5838 ± 0.0043
CSAESASPAERY | 0.6541 ± 0.0013
CSHSLVLRFCPF | 0.607 ± 0.059
CSLLCKCHLRRL | 0.712 ± 0.1
CSLLFFFLLSFG | 0.521 ± 0.021
CSLWVLKLFLGV | 0.544 ± 0.012
CSPRPPPRSLHP | 0.812 ± 0.024
CSPSPARPPPPR | 0.684 ± 0.013
CSRGVVLFLGFL | 0.586 ± 0.016
CSRPPFLLFVSP | 0.702 ± 0.0076
CSRTSKKMSIGG | 0.613 ± 0.019
CSSLLSSFSLRL | 0.671 ± 0.038
CSSVTEFWWAVF | 0.766 ± 0.1
CTMEDLGNCEGI | 0.691 ± 0.0082
CVAFLAGIVSFL | 0.525 ± 0.019
CVCGRFGGELGV | 0.653 ± 0.1
CVCPLPLDSPVS | 0.629 ± 0.081
CVERVGSTPMDS | 0.607 ± 0.053
CVLLSEVNRTMG | 0.646 ± 0.041
CVLVVCRFTGDW | 0.5083 ± 0.0038
CVQVMTWAMLEC | 0.618 ± 0.022

Sequence | protein stability index
CVSRLIPGDKHE | 0.67 ± 0.032
CVVRADGVVGIL | 0.649 ± 0.012
CVYGWVGRGWGA | 0.707 ± 0.079
CWCGLGVWAFGV | 0.715 ± 0.039
CWGAGGRTVING | 0.68 ± 0.034
CWGEGGRTVING | 0.639 ± 0.03
CWSSPSFSLLFP | 0.779 ± 0.028
CWVNDGCPICGW | 0.732 ± 0.072
CYCPPPGMPVPF | 0.736 ± 0.095
DACPLAEGGGAA | 0.717 ± 0.035
DAFWLRSRRSEG | 0.712 ± 0.0039
DALGRSNGPPRV | 0.673 ± 0.027
DAPSPPLTGVSR | 0.645 ± 0.01
DASELLGRPVVL | 0.748 ± 0.012
DAVWTRGGEGVW | 0.718 ± 0.019
DCFISPRIFRPK | 0.721 ± 0.023
DCKTCVVGCELF | 0.697 ± 0.043
DCKVLIGQYQRE | 0.7 ± 0.0098
DCPLPPRYRAPL | 0.691 ± 0.043
DDGRDTLCGRGS | 0.68 ± 0.042
DDRFNVGNLPQG | 0.672 ± 0.046
DDSSLLMLNCLE | 0.71964 ± 0.00048
DEEVGWGRGVGW | 0.72 ± 0.074
DETCVGSWNSCG | 0.712 ± 0.044
DFFPVSGLANEH | 0.636 ± 0.092

Sequence | protein stability index
DFSPSPWQFTCW | 0.692 ± 0.071
DFVKVVPNVVDL | 0.659 ± 0.078
DFVLKQIARINL | 0.648 ± 0.021
DGALWGTDRGAG | 0.701 ± 0.064
DGCRLCRRFIFG | 0.669 ± 0.013
DGFGVARGVSWG | 0.752 ± 0.035
DGGGGGGGVAGD | 0.708 ± 0.051
DGGRPFQKLYVA | 0.663 ± 0.014
DGLWIYNINDGH | 0.7314 ± 0.0019
DGTICAITYLTS | 0.6653 ± 0.0017
DGWVAVGRALGG | 0.704 ± 0.028
DHNTRGYQTKSR | 0.667 ± 0.031
DIHSSQVPSMFA | 0.68 ± 0.076
DIHVNLHKSRKM | 0.626 ± 0.027
DIIGMPLLMKKK | 0.693 ± 0.03
DIKATRTYNHKV | 0.68 ± 0.029
DIKKRQNIKDRK | 0.686 ± 0.051
DKKKNKDQKEKI | 0.731 ± 0.029
DKKKRRERKDRT | 0.6746 ± 0.0061
DKLSSRIPCSPS | 0.679 ± 0.0077
DKTPRSHKKTAE | 0.738 ± 0.022
DLAPLSFVHLLL | 0.596 ± 0.037
DLFPTLFFIRSR | 0.689 ± 0.073
DLGLSYCGYAML | 0.683 ± 0.064
DLGVCCLLGDFG | 0.577 ± 0.0072

Sequence | protein stability index
DLPRCPPSPPPS | 0.713 ± 0.046
DLPRLLLSPSLP | 0.67 ± 0.058
DLRPSLPHPTQP | 0.673 ± 0.037
DLRSSDPVAGSL | 0.623 ± 0.011
DLTPWLAPFRER | 0.797 ± 0.097
DLWDDVAYVIVA | 0.619 ± 0.039
DMYLPSSSHPPP | 0.712 ± 0.021
DMYSVTRDHVMI | 0.655 ± 0.04
DNARCKSPRSLN | 0.621 ± 0.092
DNEMLQICRSRW | 0.774 ± 0.029
DNGVLVFLPVLD | 0.6791 ± 0.0066
DNMKLILNGYNL | 0.658 ± 0.03
DNSIWPSALCAP | 0.703 ± 0.047
DNWHRSFSTYPV | 0.647 ± 0.099
DPPFPSGPPLPL | 0.6742 ± 0.0061
DPPPHPPPASPT | 0.7 ± 0.1
DPVLPSVRVSLG | 0.715 ± 0.068
DQDVPLWGLVSM | 0.682 ± 0.054
DQESTRLRWGTS | 0.66 ± 0.041
DQNNSQIRHEQP | 0.575 ± 0.03
DQRCRLQGRYQR | 0.733 ± 0.12
